# In US20060084162A1:
# Molecular target: Y289L_C342T mutant of the catalytic domain (residues 130-402) of bovine β(1,4)-galactosyltransferase I (bovine) (UniProt P08037)
# Test: cell-based or functional assay
# UniProt P08037, sequence (P08037 other isoform, or with tags, fused parts or gaps Y289L C342T Y289L C342T): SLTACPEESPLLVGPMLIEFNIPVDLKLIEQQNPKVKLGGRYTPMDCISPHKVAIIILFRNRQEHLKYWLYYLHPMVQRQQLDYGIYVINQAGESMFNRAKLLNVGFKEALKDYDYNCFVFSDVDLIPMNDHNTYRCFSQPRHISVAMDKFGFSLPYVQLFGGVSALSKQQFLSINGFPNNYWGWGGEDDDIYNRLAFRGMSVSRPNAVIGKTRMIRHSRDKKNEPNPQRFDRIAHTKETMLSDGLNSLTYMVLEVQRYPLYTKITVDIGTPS
substance,measurement,value
bovine α-Lactalbumin (Sigma) (from UniProt P00711 20-142),"GalNAc-T activity of Y289L mutant with acceptor Glc (100 mM), 500 µM UDP-GalNAc, +LA 55 µM (the value without LA in the same row is 2.6)",34.8 pmol/min/ng
same,"GalNAc-T activity of Y289L mutant with acceptor GlcNAc (100 mM), 500 µM UDP-GalNAc, +LA 55 µM (the value without LA in the same row is 31.3)",3.3 pmol/min/ng
same,"GalNAc-T activity of Y289L mutant with acceptor Glucosamine (100 mM), 500 µM UDP-GalNAc, +LA 55 µM (the value without LA in the same row is 1.8)",5 pmol/min/ng
